Target: the molecule itself
Assay: SEC + other: dynamic light scattering

B1: AlbB expressed alone (natural protein, Streptomyces noursei)
chain: MNPGETVLPPQLREEIALLAVYLLSSGRGLLEEPADYGIYRCTDGARRALQLLDEHGGSTARLTAVRERLDEVMFAPMGEDRDMGAILDDLCRQMADALPEIETP
**Q.** How did the “stoichiometry N” value turn out when B1 was run?
**A.** 2
